# Measurements: PMC9272825 (The Journal of Physical Chemistry. B, 2022)
# “And” between values parts separate entries of the source, which are not always exact repeats. Equal values may be shown once.
# Target: N-terminal domain of enzyme I (EIN) (UniProt P08839 1-249)
# Assay: NMR titration
binder,measurement,value
Histidine phosphocarrier protein (HPr) (natural protein) not shown,Kd,2820 nM and 2450 nM and 3030 nM and 3020 nM
